Values quoted from earlier work as cited in publication PMC4472561 (The FEBS journal, 2015).

What was measured:
[1] = tested on: CD8^+ cytotoxic effector memory T cells; details: in words; ref [25]
Kv1.1 = Kv1.1 (UniProt Q09470)
neural progenitor cells = details: in words; ref [24]

UniProt Q09470, sequence (Q09470 whole entry): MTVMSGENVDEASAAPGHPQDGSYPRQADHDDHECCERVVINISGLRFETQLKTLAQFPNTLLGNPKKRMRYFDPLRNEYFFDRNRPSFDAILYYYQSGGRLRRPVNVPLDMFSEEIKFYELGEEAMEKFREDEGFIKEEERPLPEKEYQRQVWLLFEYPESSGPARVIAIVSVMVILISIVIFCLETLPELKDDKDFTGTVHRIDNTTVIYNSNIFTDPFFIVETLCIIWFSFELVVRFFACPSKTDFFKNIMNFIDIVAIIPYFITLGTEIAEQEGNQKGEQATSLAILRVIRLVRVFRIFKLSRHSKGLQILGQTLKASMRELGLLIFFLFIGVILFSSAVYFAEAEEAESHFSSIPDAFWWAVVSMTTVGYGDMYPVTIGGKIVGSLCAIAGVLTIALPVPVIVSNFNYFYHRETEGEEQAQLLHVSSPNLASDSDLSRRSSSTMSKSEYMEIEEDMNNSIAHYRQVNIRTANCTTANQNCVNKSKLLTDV

ChTx
proliferation of CD8+ cytotoxic effector memory T cells and secretion of granzyme B [1]: blocked the proliferation of CD8^+ cytotoxic effector memory T cells and their secretion of granzyme B

ShK (from UniProt P29187)
Kd (Kv1.1): 0.016 nM

MgTx (TIINVKCTSPKQCLPPCKAQFGQSAGAKCMNGKCKCYPH; UniProt P40755 1-39, looked up)
differentiation of neural progenitor cells into neurons (neural progenitor cells): increased the differentiation of neural progenitor cells into neurons and enhanced neuron-regeneration | proliferation of CD8+ cytotoxic effector memory T cells and secretion of granzyme B [1]: blocked the proliferation of CD8^+ cytotoxic effector memory T cells and their secretion of granzyme B
